Test results published in US6586222 (CHIRON, dated 2003).
The star is where a group is joined. P(O)(OPh)2 = diphenyl phosphonate replacing C-terminal COOH, O=P(Oc1ccccc1)(Oc1ccccc1)*; Boc = CC(C)(C)OC(=O)*

Biological target: T1, purified, activated recombinant human PR-3 (from proPR-3 secreted by Sf9 insect cells, activated with DPPI) (human, UniProt P24158 28-256)
T1 sequence: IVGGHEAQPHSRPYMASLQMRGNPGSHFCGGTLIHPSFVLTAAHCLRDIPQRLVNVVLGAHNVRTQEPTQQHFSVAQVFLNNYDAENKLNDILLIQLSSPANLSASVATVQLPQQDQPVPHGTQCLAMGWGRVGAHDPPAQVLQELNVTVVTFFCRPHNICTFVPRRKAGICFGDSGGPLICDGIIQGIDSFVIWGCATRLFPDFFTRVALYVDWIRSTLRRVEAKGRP
Assay: cell-based or functional assay

## Boc-Val-Pro-Val-{P(O)(OPh)2} [Boc-Val-Pro-Val-p(OPh)2]
  IC50 of residual enzyme activity (Boc-Ala-ONp substrate, 1 hour at 25° C.): ~0.4 µM

## Boc-Ala-Pro-Val-{P(O)(OPh)2} [Boc-Ala-Pro-Val-p(OPh)2]
  IC50 of residual enzyme activity (Boc-Ala-ONp substrate, 1 hour at 25° C.): ~10 µM
